Data on eight molecules can be found in patent publication US20260098095A1 (Hoffmann-La Roche, published 2026).

The target in experiment [1] is T1, HLA-A2/MAGE-A4 peptide MHC (pMHC) complex on cells (human). Kind of experiment: cell-based or functional assay.
Experiment [2] deals with T2, HLA-A2/MAGE-A4p230-239 complex (human).
T2 construct: also called HLA-A2/MAGEp230-239
Briefly: SPR Biacore T200, antibody captured by anti-human Fc, pMHC complex as analyte, 25 C, 1:1 Langmuir fit. For orientation: In SPR one partner is held on a chip, and binding of the other changes the refractive index at the surface.
Procedure: The dissociation phase was monitored for 240 s and triggered by switching from the sample solution to HBS-EP+. The chip surface was regenerated after every cycle using an injection of 3M MgCl₂ at 10 μl/min for 30 sec. Bulk refractive index differences were corrected for by subtracting the response obtained on the reference flow cell which contains the anti-human Fc antibody, but without HLA-A2/MAGE-A4 antibody captured on it. The affinity constants were derived from the kinetic rate constants by fitting to a 1:1 Langmuir binding using the BIAeval software (GE Healthcare). The measurement was performed in triplicate with independent dilution series.

Experiment [3] has as its target T1, HLA-A2/MAGE-A4 peptide MHC (pMHC) …. Briefly: cell-based or functional assay. The source holds these as a separate data set.

Numbering of substitutions follows the chain as printed.

B1: Molecule H (antibody, V domains shown)
VH: YVQLVESGGGLVKPGGSLRLSCAAPLPFTGLDMSWVRQAPGKGLEWVGSISPKGGSTYYNDNVLGRFTISRDNSKNTLYLQMNSLRAEDTAVYYCARDWGFFDLWGQGTLVTVSS
VL: AIQMTQSPSSLSASVGDRVTITCRASQSISNYLAWYQQKPGKAPKLLIYDANAHENDVPSRFSGSGSGTDFTLTISSLQPEDFATYYCQQYSSHPYTFGQGTKLEIK
notes: also called 007A09 IgG antibody
For orientation: Kd means the constant that tells how readily two partners part at equilibrium. A word on the koff: it is the rate constant with which the complex falls apart. For orientation: kon means the rate constant with which the complex forms. Higher therefore signals fast association. Regarding B1, the “EC50 (pM), activation of PGLALA-CAR-J cells in presence of MAGE-A4 peptide pulsed T2 cells” value (from here on “EC50 (pM), activation”) in experiment [1] was 8.6 pM. In experiment [2], this molecule had a Kd of 17.3 nM, a koff of 0.00426 s⁻¹ and a kon of 247000 M⁻¹ s⁻¹.

B2: Molecule K (antibody, V domains shown)
VH: AQLVESGGGLVQPGGSLRLSCAASAYFSFKAMSWVRQAPGKGLEWVGSISPSGGSTYYNDNVLGRFTISRDNSKNTLYLQMNSLRAEDTAVYYCAKDVGFFDEWGQGTLVTVSS
VL: B1 VL with A1D, N31S, N52S, A53I, H54R, E55D, N56I, D57G, H94Y
notes: also called 057D03 IgG antibody
For B2, the “EC50 (pM), activation” value in experiment [1] was determined as 18.2 pM. In experiment [2], binding was put at a Kd of 15.7 nM, the koff stood at 0.0408 s⁻¹ and the kon amounted to 2.6e+06 M⁻¹ s⁻¹.

B3: Molecule J (antibody, V domains shown)
VH: TQQLVESGGGLVQPGGSLRLSCAASGFSFSFDTMSWVRQAPGKGLEWVGSISPSGGSTYYNDNVLGRFTISRDNSKNTLYLQMNSLRAEDTAVYYCARDHGYFDMWGQGTLVTVSS
VL: B1 VL with A1D, N31S, N52S, A53W, H54L, N56L, D57G, H94Y
notes: also called 057B04 IgG antibody
With B3, the “EC50 (pM), activation” value in experiment [1] was determined as 208 pM. In experiment [2], this molecule displayed a Kd of 40.7 nM, a koff of 0.043 s⁻¹ and a kon of 1.06e+06 M⁻¹ s⁻¹.

B4: Molecule I (antibody, V domains shown)
VH: B1 VH with V2P, P25R, L26Y, G30R, L104N
VL: B1 VL with D50N, N52S, A53H, H54P, N56Y
notes: also called 007D10 IgG antibody
On to B4, for which the “EC50 (pM), activation” value in experiment [1] stood at 182 pM. Further, in experiment [2], the Kd worked out at 96.4 nM, the koff was found to be 0.00246 s⁻¹ and the kon was determined as 25500 M⁻¹ s⁻¹.

B5: Molecule U (bispecific antibody, V domains shown)
VH 1: QVQLQQSGGEVMKPGASVKLSCKATGYTFTGYWIEWIKQRPGHGLEWIGEILPGSGGTNYNEKFKGKATFTAHTSSNTAYMQLSSLTTEDSAIYYCARDSNSFTYWGQGTLVTVSS
VL 1: QIVLTQSPAIMSASPGEKVTITCSVSSSVDYIHWFQQKPGTSPKFWIYSTSILASGVPARFSGSGSGTSYSLTISRMEAEDAATYYCQQRSSYPPTFGSGTKLEIK
VH 2: EVQLVESGGGLVQPGGSLRLSCAASGYSFTGYTMNWVRQAPGKGLEWVALINPYKGVSTYNQKFKDRFTISVDKSKNTAYLQMNSLRAEDTAVYYCARSGYYGDSDWYFDVWGQGTLVTVSS
VL 2: DIQMTQSPSSLSASVGDRVTITCRASQDIRNYLNWYQQKPGKAPKLLIYYTSRLESGVPSRFSGSGSGTDYTLTISSLQPEDFATYYCQQGNTLPWTFGQGTKVEIK
With B5, in experiment [3], the “EC50 (nM), T-cell mediated lysis of A375 cells, 48 h” value came to 1.96 nM; the “EC50 (nM), T-cell mediated lysis of NCI-H2023 cells, 48 h” value is 1.12 nM; the “EC50 (nM), T-cell mediated lysis of UMUC-3 cells, 48 h” value came out at 0.45 nM.

B6: Molecule N (antibody, V domains shown)
VH: B5 VH 1
VL: B5 VL 1
Take B6: the “EC50 (pM), activation” value in experiment [1] came out at 19.2 pM.

B7: Molecule L (antibody, V domains shown)
VH: not shown
VL: SSELTQDPAVSVALGQTVRITCQGDSLRSYYASWYQQKPGQAPVLVIYGKNNRPSGIPDRFSGSSSGNTASLTITGAQAEDEADYYCNSRQSSYYHHIVFGGGTKLTVL
notes: also called 032G09 IgG antibody
In the case of B7, the “EC50 (pM), activation” value in experiment [1] stood at 83.7 pM. Further, in experiment [2], the Kd is 25.1 nM, the koff was determined as 0.003 s⁻¹ and the kon came to 120000 M⁻¹ s⁻¹.

B8: Molecule M (antibody, V domains shown)
VH: not shown
VL: B7 VL with G67S, Q91M, Y94R, I98D
notes: also called 034F05 IgG antibody
In the case of B8, the “EC50 (pM), activation” value in experiment [1] turned out to be 19.2 pM. In experiment [2], this molecule came in with a Kd of 2.47 nM, a koff of 0.00111 s⁻¹ and a kon of 450000 M⁻¹ s⁻¹.
